Laboratory results published in patent US20180250358A1, “GHRH AGONISTS FOR THE TREATMENT OF ISCHEMIC DISORDERS” (published 2018).
Blank lines part the entries; values can stand above or below the binder they belong to. Non-standard residues stand in square brackets, D forms with d. No end group written: not given here. *: point of attachment. Desaminotyrosyl = O=C(CCc1ccc(O)cc1)*; hArg = N=C(N)NCCCC[C@H](N)C(=O)O; Agmatine = N=C(N)NCCCCN*; Nle = CCCC[C@H](N)C(=O)O; Orn = NCCC[C@H](N)C(=O)O; Abu = CC[C@H](N)C(=O)O; Aoc = NCCCCCCCC(=O)O; GABA = NCCCC(=O)O

Legend:
[1] = target: T1, GHRH receptor of human pituitary membranes (human, UniProt Q02643); assay: competition vs 125I-JV-1-42, human pituitary membranes
T1 sequence: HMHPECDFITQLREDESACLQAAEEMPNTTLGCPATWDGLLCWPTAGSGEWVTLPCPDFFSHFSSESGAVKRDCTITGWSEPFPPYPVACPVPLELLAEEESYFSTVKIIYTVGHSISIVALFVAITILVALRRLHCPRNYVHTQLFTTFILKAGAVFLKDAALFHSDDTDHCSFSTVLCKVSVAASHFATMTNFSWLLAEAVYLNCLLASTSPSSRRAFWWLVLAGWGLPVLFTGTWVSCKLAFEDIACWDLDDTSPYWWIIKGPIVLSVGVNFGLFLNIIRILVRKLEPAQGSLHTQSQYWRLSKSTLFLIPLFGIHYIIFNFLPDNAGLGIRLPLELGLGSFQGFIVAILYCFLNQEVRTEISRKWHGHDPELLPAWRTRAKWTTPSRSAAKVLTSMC

[2] = target: T1, GHRH receptor of human pituitary …; assay: as above; remark: listed apart in the source
Protocol: The final binding affinities were expressed as IC₅₀ values and were calculated by using the LIGAND PC computerized curve-fitting program of Munson and Rodbard as modified by McPherson.

[3] = target: T1, GHRH receptor of human pituitary …; assay: competition vs 125I-[His1,Nle27]hGHRH(1-32)NH2, human pituitary membranes
From the text: Normal human pituitary was purchased from the National Hormone and Peptide Program (UCLA Medical Center, Torrance, Calif.).

[4] = target: T1, GHRH receptor of human pituitary …; assay: as above; remark: listed apart in the source
From the text: Normal human pituitaries were purchased from the National Hormone and Peptide Program (A.F. Parlow, Los Angeles, County Harbor-UCLA Medical Center, Torrance, Calif.).

B4: hGHRH(1-29)NH2 (ligand)
peptide: YADAIFTNSYRKVLGQLSARKLLQDIMSR-NH2
IC50 [4]: 5920 pM
IC50 [2]: 4060 pM

B6: P-23254 [Dat^1, D-Ala^2, Thr^8, Orn^12, Abu^15, Orn^21, Nle^27, Asp^28, Har^30]hGHRH(1-30)NH2 (peptide)
peptide: [Desaminotyrosyl][dA]DAIFTTSYR[Orn]VL[Abu]QLSAR[Orn]LLQDI[Nle]DR[hArg]-NH2
SMILES: CCCC[C@H](NC(=O)[C@@H](NC(=O)[C@H](CC(=O)O)NC(=O)[C@H](CCC(N)=O)NC(=O)[C@H](CC(C)C)NC(=O)[C@H](CC(C)C)NC(=O)[C@H](CCCN)NC(=O)[C@H](CCCNC(=N)N)NC(=O)[C@H](C)NC(=O)[C@H](CO)NC(=O)[C@H](CC(C)C)NC(=O)[C@H](CCC(N)=O)NC(=O)[C@H](CC)NC(=O)[C@H](CC(C)C)NC(=O)[C@@H](NC(=O)[C@H](CCCN)NC(=O)[C@H](CCCNC(=N)N)NC(=O)[C@H](Cc1ccc(O)cc1)NC(=O)[C@H](CO)NC(=O)[C@@H](NC(=O)[C@@H](NC(=O)[C@H](Cc1ccccc1)NC(=O)[C@@H](NC(=O)[C@H](C)NC(=O)[C@H](CC(=O)O)NC(=O)[C@@H](C)NC(=O)CCc1ccc(O)cc1)[C@@H](C)CC)[C@@H](C)O)[C@@H](C)O)C(C)C)[C@@H](C)CC)C(=O)N[C@@H](CC(=O)O)C(=O)N[C@@H](CCCNC(=N)N)C(=O)N[C@@H](CCCCNC(=N)N)C(N)=O
IC50 [4]: 70 pM
relative affinity (binding potency) vs GHRH [4]: 84.5 vs GHRH(1-29)=1
relative affinity (binding potency) vs JI-38 [4]: 27.8 vs JI-38=1

B7: P-23252 [Dat^1-D-Ala^2, Orn^12, Abu^15, Orn^21, Nle^27, Asp^28, Har^30]hGHRH(1-30)NH2 (peptide)
peptide: [Desaminotyrosyl][dA]DAIFTNSYR[Orn]VL[Abu]QLSAR[Orn]LLQDI[Nle]DR[hArg]-NH2
SMILES: CCCC[C@H](NC(=O)[C@@H](NC(=O)[C@H](CC(=O)O)NC(=O)[C@H](CCC(N)=O)NC(=O)[C@H](CC(C)C)NC(=O)[C@H](CC(C)C)NC(=O)[C@H](CCCN)NC(=O)[C@H](CCCNC(=N)N)NC(=O)[C@H](C)NC(=O)[C@H](CO)NC(=O)[C@H](CC(C)C)NC(=O)[C@H](CCC(N)=O)NC(=O)[C@H](CC)NC(=O)[C@H](CC(C)C)NC(=O)[C@@H](NC(=O)[C@H](CCCN)NC(=O)[C@H](CCCNC(=N)N)NC(=O)[C@H](Cc1ccc(O)cc1)NC(=O)[C@H](CO)NC(=O)[C@H](CC(N)=O)NC(=O)[C@@H](NC(=O)[C@H](Cc1ccccc1)NC(=O)[C@@H](NC(=O)[C@H](C)NC(=O)[C@H](CC(=O)O)NC(=O)[C@@H](C)NC(=O)CCc1ccc(O)cc1)[C@@H](C)CC)[C@@H](C)O)C(C)C)[C@@H](C)CC)C(=O)N[C@@H](CC(=O)O)C(=O)N[C@@H](CCCNC(=N)N)C(=O)N[C@@H](CCCCNC(=N)N)C(N)=O
IC50 [4]: 140 pM
relative affinity (binding potency) vs GHRH [4]: 42.3 vs GHRH(1-29)=1
relative affinity (binding potency) vs JI-38 [4]: 13.9 vs JI-38=1

Continued, values first:

IC50 [1]: 520 pM
relative affinity (binding potency) vs JI-38 [1]: 8.37 vs JI-38=1
IC50 [2]: 40 pM
relative affinity (binding potency) vs GHRH [2]: 102 vs GHRH(1-29)=1
relative affinity (binding potency) vs JI-38 [2]: 42.7 vs JI-38=1
B1: P-20350 [Dat^1, D-Ala^2, Gln^8, Orn^12, Abu^15, Orn^21, Nle^27, Asp^28, Agm^29]hGHRH(1-29)NH2 (peptide)
peptide: [Desaminotyrosyl][dA]DAIFTQSYR[Orn]VL[Abu]QLSAR[Orn]LLQDI[Nle]D[Agmatine]
SMILES: CCCC[C@H](NC(=O)[C@@H](NC(=O)[C@H](CC(=O)O)NC(=O)[C@H](CCC(N)=O)NC(=O)[C@H](CC(C)C)NC(=O)[C@H](CC(C)C)NC(=O)[C@H](CCCN)NC(=O)[C@H](CCCNC(=N)N)NC(=O)[C@H](C)NC(=O)[C@H](CO)NC(=O)[C@H](CC(C)C)NC(=O)[C@H](CCC(N)=O)NC(=O)[C@H](CC)NC(=O)[C@H](CC(C)C)NC(=O)[C@@H](NC(=O)[C@H](CCCN)NC(=O)[C@H](CCCNC(=N)N)NC(=O)[C@H](Cc1ccc(O)cc1)NC(=O)[C@H](CO)NC(=O)[C@H](CCC(N)=O)NC(=O)[C@@H](NC(=O)[C@H](Cc1ccccc1)NC(=O)[C@@H](NC(=O)[C@H](C)NC(=O)[C@H](CC(=O)O)NC(=O)[C@@H](C)NC(=O)CCc1ccc(O)cc1)[C@@H](C)CC)[C@@H](C)O)C(C)C)[C@@H](C)CC)C(=O)N[C@@H](CC(=O)O)C(=O)NCCCCNC(=N)N

IC50 [1]: 330 pM
relative affinity (binding potency) vs JI-38 [1]: 13.2 vs JI-38=1
IC50 [3]: 2160 pM
relative affinity (binding potency) compared to JI-38 [3]: 1.27 vs JI-38=1
relative affinity (binding potency) compared to hGHRH(1-29) [3]: 3.54 vs hGHRH(1-29)NH2=1
IC50 [2]: 70 pM
relative affinity (binding potency) vs GHRH [2]: 58 vs GHRH(1-29)=1
relative affinity (binding potency) vs JI-38 [2]: 24.4 vs JI-38=1
B2: P-25502 [Dat^1, D-Ala^2, Fpa5^6, Orn^12, Abu^15, Orn^21, Nle^27, Gab^30]hGHRH(1-30)NH2 (peptide)
peptide: YADAIFTNSYRKVLGQLSARKLLQDIMSRQ
modifications: Dat^1; D-Ala^2; Fpa5^6; Orn^12; Abu^15; Orn^21; Nle^27; Gab^30 (in place of Gln^30); C-terminal -NH2

IC50 [4]: 40 pM
relative affinity (binding potency) vs GHRH [4]: 148 vs GHRH(1-29)=1
relative affinity (binding potency) vs JI-38 [4]: 48.7 vs JI-38=1
B3: P-23256 [Dat^1, D-Ala^2, Ala^8, Orn^12, Abu^15, Orn^21, Nle^27, Asp^28, Har^30]hGHRH(1-30)NH2 (peptide)
peptide: [Desaminotyrosyl][dA]DAIFTASYR[Orn]VL[Abu]QLSAR[Orn]LLQDI[Nle]DR[hArg]-NH2
SMILES: CCCC[C@H](NC(=O)[C@@H](NC(=O)[C@H](CC(=O)O)NC(=O)[C@H](CCC(N)=O)NC(=O)[C@H](CC(C)C)NC(=O)[C@H](CC(C)C)NC(=O)[C@H](CCCN)NC(=O)[C@H](CCCNC(=N)N)NC(=O)[C@H](C)NC(=O)[C@H](CO)NC(=O)[C@H](CC(C)C)NC(=O)[C@H](CCC(N)=O)NC(=O)[C@H](CC)NC(=O)[C@H](CC(C)C)NC(=O)[C@@H](NC(=O)[C@H](CCCN)NC(=O)[C@H](CCCNC(=N)N)NC(=O)[C@H](Cc1ccc(O)cc1)NC(=O)[C@H](CO)NC(=O)[C@H](C)NC(=O)[C@@H](NC(=O)[C@H](Cc1ccccc1)NC(=O)[C@@H](NC(=O)[C@H](C)NC(=O)[C@H](CC(=O)O)NC(=O)[C@@H](C)NC(=O)CCc1ccc(O)cc1)[C@@H](C)CC)[C@@H](C)O)C(C)C)[C@@H](C)CC)C(=O)N[C@@H](CC(=O)O)C(=O)N[C@@H](CCCNC(=N)N)C(=O)N[C@@H](CCCCNC(=N)N)C(N)=O

IC50 [1]: 860 pM
relative affinity (binding potency) vs JI-38 [1]: 5.06 vs JI-38=1
IC50 [3]: 3300 pM
relative affinity (binding potency) compared to JI-38 [3]: 0.83 vs JI-38=1
relative affinity (binding potency) compared to hGHRH(1-29) [3]: 2.31 vs hGHRH(1-29)NH2=1
IC50 [2]: 50 pM
relative affinity (binding potency) vs GHRH [2]: 81.2 vs GHRH(1-29)=1
relative affinity (binding potency) vs JI-38 [2]: 34.2 vs JI-38=1
B5: P-29702 [Dat^1, D-Ala^2, Orn^12, Abu^15, Orn^21, Nle^27, Gln-Gab^30]hGHRH(1-30)NH2 (peptide)
peptide: [Desaminotyrosyl][dA]DAIFTNSYR[Orn]VL[Abu]QLSAR[Orn]LLQDI[Nle]SRQ-{GABA-NH2}
SMILES: CCCC[C@H](NC(=O)[C@@H](NC(=O)[C@H](CC(=O)O)NC(=O)[C@H](CCC(N)=O)NC(=O)[C@H](CC(C)C)NC(=O)[C@H](CC(C)C)NC(=O)[C@H](CCCN)NC(=O)[C@H](CCCNC(=N)N)NC(=O)[C@H](C)NC(=O)[C@H](CO)NC(=O)[C@H](CC(C)C)NC(=O)[C@H](CCC(N)=O)NC(=O)[C@H](CC)NC(=O)[C@H](CC(C)C)NC(=O)[C@@H](NC(=O)[C@H](CCCN)NC(=O)[C@H](CCCNC(=N)N)NC(=O)[C@H](Cc1ccc(O)cc1)NC(=O)[C@H](CO)NC(=O)[C@H](CC(N)=O)NC(=O)[C@@H](NC(=O)[C@H](Cc1ccccc1)NC(=O)[C@@H](NC(=O)[C@H](C)NC(=O)[C@H](CC(=O)O)NC(=O)[C@@H](C)NC(=O)CCc1ccc(O)cc1)[C@@H](C)CC)[C@@H](C)O)C(C)C)[C@@H](C)CC)C(=O)N[C@@H](CO)C(=O)N[C@@H](CCCNC(=N)N)C(=O)N[C@@H](CCC(N)=O)C(=O)NCCCC(N)=O

IC50 [4]: 80 pM
relative affinity (binding potency) vs GHRH [4]: 74 vs GHRH(1-29)=1
relative affinity (binding potency) vs JI-38 [4]: 24.4 vs JI-38=1
B8: P-21304 [Dat^1, D-Ala^2, Gln^8, Orn^12, Abu^15, Orn^21, Nle^27, Asp^28, Amc^30]hGHRH(1-30)NH2 (peptide)
peptide: [Desaminotyrosyl][dA]DAIFTQSYR[Orn]VL[Abu]QLSAR[Orn]LLQDI[Nle]DR[Aoc]-NH2
SMILES: CCCC[C@H](NC(=O)[C@@H](NC(=O)[C@H](CC(=O)O)NC(=O)[C@H](CCC(N)=O)NC(=O)[C@H](CC(C)C)NC(=O)[C@H](CC(C)C)NC(=O)[C@H](CCCN)NC(=O)[C@H](CCCNC(=N)N)NC(=O)[C@H](C)NC(=O)[C@H](CO)NC(=O)[C@H](CC(C)C)NC(=O)[C@H](CCC(N)=O)NC(=O)[C@H](CC)NC(=O)[C@H](CC(C)C)NC(=O)[C@@H](NC(=O)[C@H](CCCN)NC(=O)[C@H](CCCNC(=N)N)NC(=O)[C@H](Cc1ccc(O)cc1)NC(=O)[C@H](CO)NC(=O)[C@H](CCC(N)=O)NC(=O)[C@@H](NC(=O)[C@H](Cc1ccccc1)NC(=O)[C@@H](NC(=O)[C@H](C)NC(=O)[C@H](CC(=O)O)NC(=O)[C@@H](C)NC(=O)CCc1ccc(O)cc1)[C@@H](C)CC)[C@@H](C)O)C(C)C)[C@@H](C)CC)C(=O)N[C@@H](CC(=O)O)C(=O)N[C@@H](CCCNC(=N)N)C(=O)NCCCCCCCC(N)=O
